The values below come from patent US20260008817A1, “CYCLIC PEPTIDE OR SALT THEREOF, AND USES THEREOF” (FUJIFILM Corporation, priority 2023, published 2026).

Positions of bridges follow the written chain, without caps; N, C: chain ends. No end group written: not given here. COCH2 = acetyl group that carries the bridge

The target in this test is T1, Recombinant Human FGFR1 alpha (IIIc) Fc Chimera Protein (Homo sapiens, UniProt P11362).
T1 construct: purchased R&D systems 658-FR-050
T1 sequence (P11362 with tags, fused parts or gaps limits assumed): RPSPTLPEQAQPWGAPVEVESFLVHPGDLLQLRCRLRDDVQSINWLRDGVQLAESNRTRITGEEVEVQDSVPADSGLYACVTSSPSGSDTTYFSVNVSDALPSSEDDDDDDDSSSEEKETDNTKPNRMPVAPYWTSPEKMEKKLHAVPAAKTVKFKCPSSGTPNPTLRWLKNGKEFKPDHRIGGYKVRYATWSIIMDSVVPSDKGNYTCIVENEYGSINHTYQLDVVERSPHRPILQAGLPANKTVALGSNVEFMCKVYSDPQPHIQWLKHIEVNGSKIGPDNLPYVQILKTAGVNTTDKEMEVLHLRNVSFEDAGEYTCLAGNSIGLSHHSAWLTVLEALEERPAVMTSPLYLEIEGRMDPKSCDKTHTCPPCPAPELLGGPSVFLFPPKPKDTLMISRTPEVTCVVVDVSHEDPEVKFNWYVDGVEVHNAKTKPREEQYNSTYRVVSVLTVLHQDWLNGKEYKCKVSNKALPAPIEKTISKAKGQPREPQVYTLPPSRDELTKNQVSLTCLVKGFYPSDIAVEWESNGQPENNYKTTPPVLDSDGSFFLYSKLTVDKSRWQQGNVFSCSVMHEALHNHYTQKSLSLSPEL
The experiment in a line: ELISA binding affinity of enzymatically synthesized peptide to FGFR. The settings on record: ELISA luminescence signal at 10 nmol/L peptide, SEQ ID NO: 239 standardized to 1; enzyme synthesis product. The procedure: The binding affinity of the peptide to FGFR was evaluated using an ELISA method.
The peptide used for the evaluation was enzymatically synthesized by the following method.
First, a fusion peptide (SEQ ID NO: 25) in which a translation enhancing sequence (SEQ ID NO: 22), a peptide, a Myc tag (SEQ ID NO: 23), and a HiBiT tag (SEQ ID NO: 24) were linked in this order was designed. Next, a template DNA sequence (SEQ ID NO: 26) was designed in which a T7 promoter sequence, a Shine-Dalgarno sequence, a sequence necessary for transcription and translation initiation, such as a start codon (ATG), was provided on the 5′ terminal side of the DNA sequence encoding the fused peptide, and a stop codon group was provided on the 3′ terminal side thereof. In a case where the triplet TAG codon is included in the template DNA sequence, the above-described codon is assigned to the codon of chloroacetylated lysine, and thus, the peptide encoded by the above-described DNA sequence is a cyclic peptide in which a thiol group of cysteine and a chloroacetyl group of chloroacetylated lysine spontaneously form a thioether bond.
The cell-free enzymatic synthesis of the polypeptide was performed in a translation solution containing a template DNA, PUREfrex 2.0 (GeneFrontier, PF201-0.25-5), and Aminoacyl tRNA (1). 1.75 μL ([…]) of the template DNA prepared to 50 ng/μL, 2.5 μL of PUREfrex 2.0 Solution I, 0.25 μL of Solution II, 0.5 μL of Solution III, and a dried product of Aminoacyl tRNA (1) (final concentration: 0.5 ng/μL) were mixed and mixture was subjected to a reaction at 37° C. for 1 hour.
The concentration of the enzymatically synthesized peptide was measured using the peptide diluted with Can Get Signal Immunoreaction Enhancer Solution I (TOYOBO, NKB-101), Nano-Glo HiBiT Lytic Detection System (Promega, N3040), and a chemical synthetic peptide for a calibration curve having a known concentration (SEQ ID NO: 33) according to the standard protocol of the Nano-Glo HiBiT Lytic Detection System.
The binding affinity of the enzymatically synthesized peptide to FGFR was measured by evaluating the amount of the peptide bound to FGFR by ELISA.
First, 5 ng of Recombinant Human FGFR1 alpha (IIIc) Fc Chimera Protein (R&D systems, 658-FR-050) was immobilized in each well of a 96-well plate, and blocked with Pierce Protein-Free (PBS) Blocking Buffer (Thermo, 37572), and a peptide diluted with Can Get Signal Immunoreaction Enhancer Solution I (TOYOBO, NKB-101) was then added and reacted at room temperature for 3 hours. After washing with 0.05% Tween 20-containing phosphate buffered saline (PBS), an anti-Myc antibody (Cell Signaling, 14038S) diluted with Can Get Signal Immunoreaction Enhancer Solution II (TOYOBO, NKB-101) was added and reacted at room temperature for 2 hours. After washing with 0.05% Tween 20-containing PBS, SuperSignal ELISA Femto Substrate (Thermo, 37075) was added, and the luminescence amount was measured. The dose-response relationship was calculated from using the difference between the luminescence amount in the well in which FGFR was immobilized and the luminescence amount in the well in which FGFR was not immobilized, and the concentration of the peptide at the time of reaction, and the binding affinity to FGFR was evaluated according to the following evaluation criteria. The evaluation result preferably satisfies the evaluation criteria A, B, or C.
In a case where a value of a luminescence signal emitted by the cyclic peptide set forth in SEQ ID NO: 239 at a reaction concentration of 10 nmol/L is standardized to 1, evaluation criteria of the luminescence signal value emitted by the peptide at a reaction concentration of 10 nmol/L is as follows. • A: 0.7 or more • B: 0.5 or more and less than 0.7 • C: 0.1 or more and less than 0.5 • D: less than 0.1.
In general terms: An ELISA detects its analyte on a solid surface through an enzyme-linked reagent.
Turning to “74 (ICVYTADAHAHSLHAALTK(COCH2)I; thioether 2-19 (inferred)) [compound 74]”, the “Evaluation result of binding affinity to FGFR” value (“Evaluation result” for short) is “C (0.1 or more and less than 0.5)”.

Consider “75 (ICVYTGDAHAHSLHAALTK(COCH2)I; thioether 2-19 (inferred)) [compound 75]”, for which the “Evaluation result” value was “C (0.1 or more and less than 0.5)”.

Consider “76 (ICVYTYDAHAHSLHAALTK(COCH2)I; thioether 2-19 (inferred)) [compound 76]”, for which the “Evaluation result” value is “B (0.5 or more and less than 0.7)”. The value for “77 (ICVYTWDAHAHSLHAALTK(COCH2)I; thioether 2-19 (inferred)) [compound 77]” was “B (0.5 or more and less than 0.7)”; that for “78 (ICVYTSDAHAHSLHAALTK(COCH2)I; thioether 2-19 (inferred)) [compound 78]” was “C (0.1 or more and less than 0.5)”. “79 (ICVYTHDAHAHSLHAALTK(COCH2)I; thioether 2-19 (inferred)) [compound 79]”: the “Evaluation result” value was “C (0.1 or more and less than 0.5)”. On to “80 (ICVYTFAAHAHSLHAALTK(COCH2)I; thioether 2-19 (inferred)) [compound 80]”, for which the “Evaluation result” value was “C (0.1 or more and less than 0.5)”.

“81 (ICVYTFGAHAHSLHAALTK(COCH2)I; thioether 2-19 (inferred)) [compound 81]”: the “Evaluation result” value was “C (0.1 or more and less than 0.5)”. The same measure for “82 (ICVYTFPAHAHSLHAALTK(COCH2)I; thioether 2-19 (inferred)) [compound 82]”: “C (0.1 or more and less than 0.5)”; for “83 (ICVYTFVAHAHSLHAALTK(COCH2)I; thioether 2-19 (inferred)) [compound 83]”: “C (0.1 or more and less than 0.5)”; for “84 (ICVYTFFAHAHSLHAALTK(COCH2)I; thioether 2-19 (inferred)) [compound 84]”: “C (0.1 or more and less than 0.5)”. Take “85 (ICVYTFYAHAHSLHAALTK(COCH2)I; thioether 2-19 (inferred)) [compound 85]”: the “Evaluation result” value is “C (0.1 or more and less than 0.5)”. The value for “86 (ICVYTFWAHAHSLHAALTK(COCH2)I; thioether 2-19 (inferred)) [compound 86]” was “C (0.1 or more and less than 0.5)”; that for “87 (ICVYTFNAHAHSLHAALTK(COCH2)I; thioether 2-19 (inferred)) [compound 87]” was “A (0.7 or more)”; that for “88 (ICVYTFSAHAHSLHAALTK(COCH2)I; thioether 2-19 (inferred)) [compound 88]” was “C (0.1 or more and less than 0.5)”. Turning to “89 (ICVYTFDGHAHSLHAALTK(COCH2)I; thioether 2-19 (inferred)) [compound 89]”, the “Evaluation result” value is “B (0.5 or more and less than 0.7)”. The same measure for “90 (ICVYTFDPHAHSLHAALTK(COCH2)I; thioether 2-19 (inferred)) [compound 90]”: “B (0.5 or more and less than 0.7)”; for “91 (ICVYTFDLHAHSLHAALTK(COCH2)I; thioether 2-19 (inferred)) [compound 91]”: “C (0.1 or more and less than 0.5)”. The same measure for “92 (ICVYTFDIHAHSLHAALTK(COCH2)I; thioether 2-19 (inferred)) [compound 92]”: “C (0.1 or more and less than 0.5)”.

For “93 (ICVYTFDVHAHSLHAALTK(COCH2)I; thioether 2-19 (inferred)) [compound 93]”, the “Evaluation result” value is “C (0.1 or more and less than 0.5)”.

As to “94 (ICVYTFDYHAHSLHAALTK(COCH2)I; thioether 2-19 (inferred)) [compound 94]”, the “Evaluation result” value is “C (0.1 or more and less than 0.5)”. The same measure for “95 (ICVYTFDWHAHSLHAALTK(COCH2)I; thioether 2-19 (inferred)) [compound 95]”: “C (0.1 or more and less than 0.5)”.

As for “96 (ICVYTFDNHAHSLHAALTK(COCH2)I; thioether 2-19 (inferred)) [compound 96]”, the “Evaluation result” value was “C (0.1 or more and less than 0.5)”.

Consider “97 (ICVYTFDQHAHSLHAALTK(COCH2)I; thioether 2-19 (inferred)) [compound 97]”, for which the “Evaluation result” value is “A (0.7 or more)”. The value for “98 (ICVYTFDSHAHSLHAALTK(COCH2)I; thioether 2-19 (inferred)) [compound 98]” was “A (0.7 or more)”; that for “99 (ICVYTFDTHAHSLHAALTK(COCH2)I; thioether 2-19 (inferred)) [compound 99]” was “C (0.1 or more and less than 0.5)”. The value for “100 (ICVYTFDEHAHSLHAALTKI; Description of Artificial Sequence: Cyclic peptide) [compound 100]” was “A (0.7 or more)”. The same measure for “101 (ICVYTFDRHAHSLHAALTKI; Description of Artificial Sequence: Cyclic peptide) [compound 101]”: “A (0.7 or more)”.

With “102 (ICVYTFDHHAHSLHAALTKI; Description of Artificial Sequence: Cyclic peptide) [compound 102]”, the “Evaluation result” value is “B (0.5 or more and less than 0.7)”. The value for “103 (ICVYTFDAAAHSLHAALTKI; Description of Artificial Sequence: Cyclic peptide) [compound 103]” was “A (0.7 or more)”. The value for “104 (ICVYTFDAGAHSLHAALTKI; Description of Artificial Sequence: Cyclic peptide) [compound 104]” was “A (0.7 or more)”; that for “105 (ICVYTFDALAHSLHAALTKI; Description of Artificial Sequence: Cyclic peptide) [compound 105]” was “A (0.7 or more)”; that for “106 (ICVYTFDAIAHSLHAALTKI; Description of Artificial Sequence: Cyclic peptide) [compound 106]” was “C (0.1 or more and less than 0.5)”.

As to “107 (ICVYTFDAVAHSLHAALTKI; Description of Artificial Sequence: Cyclic peptide) [compound 107]”, the “Evaluation result” value was “C (0.1 or more and less than 0.5)”. The value for “108 (ICVYTFDAFAHSLHAALTKI; Description of Artificial Sequence: Cyclic peptide) [compound 108]” was “B (0.5 or more and less than 0.7)”.

Turning to “109 (ICVYTFDAYAHSLHAALTKI; Description of Artificial Sequence: Cyclic peptide) [compound 109]”, the “Evaluation result” value was “B (0.5 or more and less than 0.7)”.

Turning to “110 (ICVYTFDAWAHSLHAALTKI; Description of Artificial Sequence: Cyclic peptide) [compound 110]”, the “Evaluation result” value is “C (0.1 or more and less than 0.5)”.
